From paper PMC2924314, “Peptides derived from the HIV-1 integrase promote HIV-1 infection and multi-integration of viral cDNA in LEDGF/p75-knockdown cells” (Virology Journal, 2010)
pKd: −log10 of the molar value.

Biological target: INS (IN derived-integrase stimulatory peptide) (HIV-1)
Assay: ELISA

Substance: Lens Epithelium Derived Growth Factor p75 (LEDGF/p75), histidine-tagged recombinant, O75475 1-530 (natural protein; other documents disagree on this pair)
- pKd: 5.66
